The nanobody polyreactivity screen of Harvey et al. (2022)

Test: yeast display, Sf9 membrane polyspecificity reagent, FACS + sequencing; frameworks hold sequencing errors
Summary of the method: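 Galactose-induced (36–48 hours) yeast carrying a synthetic nanobody display library were exposed to 10% biotinylated, detergent-solubilized Sf9 membrane reagent at 4 °C for 1 hour. FACS followed streptavidin microbead enrichment, using low and high (top ~1%) gates for expression (anti-HA) and reagent binding (streptavidin). Colony PCR, MiSeq 2 × 250 sequencing and CDR-length filtering followed. Labels for polyreactivity reflect the gate of origin.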

Sequence | polyreactivity (PSR sort gate)
QVHLVESGGGLVQAGGSLRLSCAASGFIFTDYAMGWYRQAPGKERELVAAISSGGRTYYADSVKGRFTISRDNAKNTVYLQMNSLKPEDTAVYYCARGGRAEGWGQGTQVTVSS | high polyreactivity
QVHLVESGGGLVQAGGSLRLSCAASGFIFYLYAMGWYRQAPGKERELVASITSSGRTNYADSVKGRFTISRDNAKNTVYLQMNSLKPEDTAVYYCNKRYSKGDEYYYWGQGTQVTVSS | high polyreactivity
QVHLVESGGGLVQAGGSLRLSCAASGFLFRTYAMGWYRPGPGKERELVDAISNDANTKYADSVKGRFTISRDNAKNTVYLQMNSLKPEDTAVYYGAAKAIYRGRYLKIVKVGYWGQGTQVTVSS | high polyreactivity
QVHLVESGGGLVQAGGSLRLSCAASGFTFGHYAMGWYRQAPGKERELVAAITYRGGSTYYADSVKGRFTISRDNAKNTVYLQMNSLKPEDTAVYYCNADRRYKVYFAQNGHYDYWGQGTQVTVSS | high polyreactivity
QVHLVESGGGLVQAGGSLRLSCAASGFTFLDNAMGWYRQAPGKERELVAAISGIGGSTSYADSVKGRFTISRDNAKNTVYLQMNSLKPEDTAVYYCATRWKTVGRDTIFAYDYWGQGTQVTVSS | low polyreactivity
QVHLVESGGGLVQAGGSLRLSCAASGFTFNLYAMGWYRQAPGQERELVAAINSSGGTYYADSVKGRFTLSRDNAKNTVYLQMNSLTAEDTAVYYCAADFPYTPWSYHHHVWSPDFVYWGQGTQVTVSS | low polyreactivity
QVHLVESGGGLVQAGGSLRLSCAASGFTFPIYAIGWYRQAPGKERELVAAITTRGGSTYYADSVKGRFTISRDNAKNTVYLQMNSLKPEDTAVYYCNNRGRRTDYDYWGQGTQVTVSS | high polyreactivity
QVHLVESGGGLVQAGGSLRLSCAASGFTFYAMGWYRQAPGKERELVAAIDQGGDRTYYADSVKGRFTISRDNAKNTVYFQMNSLKPEDTAVYYCAARYRRTWRLIYWGQGTQVTVSS | high polyreactivity
QVHLVESGGGLVQAGGSLRLSCAASGFTFYRYAMGWYRQAPGKERELVAAISRRGVSTDYADSVKGRFTISRDNAKNTVYLQMNSLKPEDTAVYYCAASYSRGVGKFGYWGQGSQVTVSS | high polyreactivity
QVHLVESGGGLVQAGGSLRLSCAASGGIFKQYAMGLYRQAPGKERDLVAAITWSGGSTYYADSVKGRFTISRDNAKNTVYLQMNRLKPVDTAVYYCAADRRYLDRDKHRYGYWGQGTQVTVSS | low polyreactivity
QVHLVESGGGLVQAGGSLRLSCAASGGTFQSYAMGWYRQAPGKERELVAAITQGGGRTYYADSVKGRFTISRDNAKNTVYLQMNSLKPEDTAVYYCAARQKTPYYYNYGYWGQGTQVTVSS | high polyreactivity
QVHLVESGGGLVQAGGSLRLSCAASGGTFWWYTMGWYRQAPGKERELVATITRGGSTNYADSVKGRFTISRDNAKNTVYLQMNSLKPEDTAVYYCSARWYVYVHFERYYWGQGTQVTVSS | high polyreactivity
QVHLVESGGGLVQAGGSLRLSCAASGGTIGTYAMGWYRQAPGKERELVAAISGRGGSTFYADSVKGRFTISRDNAKNSVYLQMNSLKPEDTAVYYSARGHGRSSKYDYWGQGTQVTVSS | high polyreactivity
QVHLVESGGGLVQAGGSLRLSCAASGIIFAPNAMGWYRQAPGKEREVVAGISSRGGSTYYADSVKGRFTISRDNAKNTVYLQMNSLKPEDTAVYYCAADLSYNPDEYWGQGTQVTVSS | low polyreactivity
QVHLVESGGGLVQAGGSLRLSCAASGIIFAYYAMGWYRQAPGKERELVAAISSTGSTHYADSVKGRFTISRDNAKNTVYLQMNSLKPEDTAVYYCNAYYYYRFKPSHPGLRSYYWGQGTQVTVSS | high polyreactivity
QVHLVESGGGLVQAGGSLRLSCAASGIIFTWYAMGMYRQAPGKEREMVAAISGSGDITYYADSVKGRFTISRDNAKNTVYLQMNSLKPEDTAVYYCAADPWTYWEDYDYWGQGTQVTVSS | low polyreactivity
QVHLVESGGGLVQAGGSLRLSCAASGIILYRNAMGWYRQAPGKERELVAAITNTGSRTYYADSVKGRFTISRDNAKNTVYLQMTSLKPEDTAVYYCAAYYYYSAYGDDYWGQGTQVTVSS | high polyreactivity
QVHLVESGGGLVQAGGSLRLSCAASGITFKWNDMGWYRQAPGKEREFVAAITGSTGSTFYADSVKGRFTISRDNAKNTVYLQMNSLKPEDTAVYFCAAGPWFYYWRQGTQVTVSS | low polyreactivity
QVHLVESGGGLVQAGGSLRLSCAASGITFYRYAMGWYRQAPWKERELVAAITVGGRTYYADSVKGRFTISRDNAKNNVYLQMNSLKPEDTAVYYCNVRTLHSVRGYYYWGQGTQVTVSS | high polyreactivity
QVHLVESGGGLVQAGGSLRLSCAASGKIFRSYMGWYRQAPGKERELVASISRRGGSTYYADSEKGRFTISRDNAKNTVTLQMISLKPEDTAVYYCANVVNYPSARYCYWGQGTQVTVSS | high polyreactivity
QVHLVESGGGLVQAGGSLRLSCAASGLIFVKYALGWYRQAPGKEREFVAAITRSGGTTYYADSVKGRFTISRDNAKNTVYLQMNSLKPEDTAVYYCAAGVVIYFFGGGDYWGQGTQVTVSS | low polyreactivity

Sequence | polyreactivity (PSR sort gate)
QVHLVESGGGLVQAGGSLRLSCAASGLIFVYNAMGWYRQAPGKERELVAGITSGGSTYYADSVKGRFTISRDNAKNTVYLQMNSLKPEDTAVSYCAAGYYDLYLWWGYDYWGQGTQVTVSS | high polyreactivity
QVHLVESGGGLVQAGGSLRLSCAASGLTFAYYAMGWYRQAPGKERELVAAITDSAGNTYYADSVKGRFTISRDNAKNTVYLQMNSLKQEDTAVYYCAAAWPSTGLLYVLGYSGYGYWGQGTQVTVSS | low polyreactivity
QVHLVESGGGLVQAGGSLRLSCAASGNSFTGNAMGWYRQAPGKETELVAALSKRGGSTFYADSVKGRFTISRDNPKNTVYLQLNRLKPEDTAVYYCNALRRGVRDPYGYWGQGTQVTVSS | high polyreactivity
QVHLVESGGGLVQAGGSLRLSCAASGNTFYAYARGWYRQAPGKERELVAAIARAGNTYYADSVKGRFTISRDNAKNTVYLQMNSLKPEDTAVYYCNADDWWYGDNYWGQGTEVTVSS | high polyreactivity
QVHLVESGGGLVQAGGSLRLSCAASGNTFYQYAMGWYRQAPGKERELVAAISSSGGSTYYADSVKGRFTISRDNAKNTVYLQMNSLKPEDTAVYYCATDKWYGYYYWGPGTQVTVSS | low polyreactivity
QVHLVESGGGLVQAGGSLRLSCAASGNTLRVYTKGWYRQAPWKERELVAAISRRGSRTYYADTVKGRFTISRENAKYTVYLQMNSLKPEDTAVYYCAAGIPYPDDYWGQGTQVTVSS | high polyreactivity
QVHLVESGGGLVQAGGSLRLSCAASGRIFDYNTMGWYRQAPGKERELVAAITGGTGSTYYADSVKGRFTISRDNAKNTVYLQMNSLKPEDTAVYYCAAGFHKRVTPEILYDYWGQGTQLTVSS | low polyreactivity
QVHLVESGGGLVQAGGSLRLSCAASGRIFGEYAMGWYRQAPGKERELVAAISYRGGRTYYADSVKGRFTISRDNAKNTVYLQMNSLKPEDTAVYYCAKTNRDEYDYWGQGTQVTVSS | high polyreactivity
QVHLVESGGGLVQAGGSLRLSCAASGRIFGGNVMGWYIQAPGKERELVAAISWSSGSTYYADSVKVLFTISLDNAKNTVYLQMNSQKPDDTSFYYCAADNSFRGYHSPYDYWGQGTQVTVSS | low polyreactivity
QVHLVESGGGLVQAGGSLRLSCAASGRIFGKYAMGWYRQAPGKERELVAAISSSGRTNSADSVKGRFTISRDNAKNTVYLQMNSLKPADTAVYYCAVRVLIHTNTRRLDYWGQGTQVTVSS | high polyreactivity
QVHLVESGGGLVQAGGSLRLSCAASGRIFNYYAMGWYRQAHGKERELVAAISNGGSTYYADSVKGRFTISRDNAKNTVYLQMNSLKPEDTAVYYCNAAARNGYARRVYYWGQGTQVTVSS | high polyreactivity
QVHLVESGGGLVQAGGSLRLSCAASGRIFSVYAMGWYRQAPGKERELVAVITTSGGSTYYADSVKGRFTISRGNAKNTVYLQMNSLKPEDTAVYYCNAEPWSYAIGSYEYWGQGTQVTVSS | high polyreactivity
QVHLVESGGGLVQAGGSLRLSCAASGRIFTYYAMGWYRQAPGKEREFVAAIRRSGGSTDYADSVKGRFTISRDNAKNTVYLQMNSLKPEDTAVYYCAAESPTYPGGEYWGQGTQVTVSS | high polyreactivity
QVHLVESGGGLVQAGGSLRLSCAASGRIFWLYAMGWYRQAPGKERELVAAISSGGSTSYADSVKGRFTISRDNAKNTVYLQMNSLKPEDTAVYYCNATLLFPLLYGPESGEFDYWGQGTQVTVSS | low polyreactivity
QVHLVESGGGLVQAGGSLRLSCAASGRLSQNAMGGYRQAPGKERELVAAITFSGGSTYYADSVKGRFTISRDNAKNTVYLQMNSLKPEDTAVYYCAADDRPLYWRFPDEMDYWGQGTQVTVSS | low polyreactivity
QVHLVESGGGLVQAGGSLRLSCAASGRNFAYNAMGWYRQAPGKETELVASFTSGGSTNYADSVKGRFTISRDNANNTVYLQMNSLKPEDSAVYYCNKDGKYHRVLYDYWGQGTQVTVSS | low polyreactivity
QVHLVESGGGLVQAGGSLRLSCAASGRNFYANAMGWYRQAPGKERELVAAISSGGSTYYADSVKGRFTISRDNAKNTVYLQMKSLKPEDTAVYYCAVYTHKKVRPEYDYWGQGTQVTVSS | low polyreactivity
QVHLVESGGGLVQAGGSLRLSCAASGRTCRINAMGWYRQAPGKERELVAAITSGGRTNYADSVKGRFTISRDNAKNTVYLQMNSLKPEDTAVYYCAADTTHWYYLGYGYWGQGNQVTVSS | low polyreactivity
QVHLVESGGGLVQAGGSLRLSCAASGRTFATYALGWYRQAPGKERELVAAISSGGSTYYADSVKGRFTISRDNAKNTVYLQMNSLKPEDTAVYYCAAARKYYGYNYWGQGTQVTVSS | high polyreactivity
QVHLVESGGGLVQAGGSLRLSCAASGRTFDINAMGWYRQAPGKERELVAAISSRGGTTFYADSVKGRFTISRDHAKNTVYLQMNSLKPEDTAVYYCAAEYSSYYTRGGSYNYWGQGTQVTVSS | low polyreactivity
